Experimental findings from US20230078173A1 (ELIXIRON IMMUNOTHERAPEUTICS HONG KONG, published 2023) are described below.

Test [1] has as its target T1, recombinant cynomolgus PD-L1 (cynomolgus monkey, UniProt Q9NZQ7 19-238 (human entry)).
T1 construct: also called cynoPD-L1; Cynomolgus PD-L1.ECD
The test is described as follows: ELISA, cynomolgus PD-L1 immobilised (1 µg/mL). In general terms: An ELISA detects its analyte on a solid surface through an enzyme-linked reagent.
Experimental: (§1) The wells were washed with wash solution (0.05% Tween20 in imidazole-buffered saline) and blocked with 1% BSA. […] After incubation at 37° C. for 1 hr, the wells were washed with wash solution. Peroxidase-conjugated Goat anti-human kappa Light chain antibody (Sigma) was applied to each well at 37° C. for 1 h incubation. […] After washing, the wells were developed with TMB substrate for 5-10 min at RT and then stopped with 1 N HCl. Thereafter, absorbance was measured at 450 nm and 650 nm. EC50 and IC50 values were calculated using GraphPad Prism7.

The target in test [2] is T2, recombinant human PD-L1-mFc fusion protein (human, UniProt Q9NZQ7 19-238).
T2 construct: also called hPD-L1; huPD-L1
The test is described as follows: ELISA, human PD-L1-mFc immobilised (1 µg/mL), anti-human kappa-HRP detection.
Experimental: as §1

Test [3] addresses T3, recombinant human PD-L1-His (human, UniProt Q9NZQ7 19-238).
T3 construct: Analyte of the BLI assay; also called hPD-L1
The test is described as follows: BLI (Octet RED96), antibody captured on AHC biosensor, PD-L1-His in solution, 1:1 model.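 Further: rates obtained by 1:1 Langmuir fitting of the binding response, using a 2.5 min association phase then a 5 min dissociation phase.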 For orientation: In BLI a coated tip is dipped into the sample, and binding shifts an interference pattern.
Experimental: Rate constants were calculated by curve fitting analyses (1:1 Langmuir model) of binding response with a 2.5-minute association and 5-minute dissociation interaction time.

In test [4] the target is PD-L1 on PD-L1-presenting U2OS bioassay cells (UniProt Q9NZQ7 19-290). The test is described as follows: cell-based or functional assay.
The target of test [5] is T2, recombinant human PD-L1-mFc fusion …. The test is described as follows: competition ELISA, PD-L1 immobilised, competitor biotin-PD-1-Fc (30 µg/mL).
Experimental: To test the competition activity, serial dilutions of anti-PD-L1 or anti-PD-L1/IL10 fusion proteins were added.
A recombinant human PD-L1-mFc fusion protein (1 μg/mL), recombinant cynomolgus PD-L1 (1 μg/mL; Sino Biological), or an IL10Rα-Fc fusion protein (1 μg/mL, R&D Systems) were immobilized on 96 well microtiter plate at a concentration of 1 μg/ml in Coating Solution (SeraCare) overnight at 4° C. The wells were washed with wash solution (0.05% Tween20 in imidazole-buffered saline) and blocked with 1% BSA. Serial dilutions of anti-PD-L1 or anti-PD-L1/IL10 fusion proteins were added to wells. After incubation at 37° C. for 1 hr, the wells were washed with wash solution. Peroxidase-conjugated Goat anti-human kappa Light chain antibody (Sigma) was applied to each well at 37° C. for 1 h incubation. […] After washing, the wells were developed with TMB substrate for 5-10 min at RT and then stopped with 1 N HCl. Thereafter, absorbance was measured at 450 nm and 650 nm. EC50 and IC50 values were calculated using GraphPad Prism7.

T3 sequence (Q9NZQ7 19-238): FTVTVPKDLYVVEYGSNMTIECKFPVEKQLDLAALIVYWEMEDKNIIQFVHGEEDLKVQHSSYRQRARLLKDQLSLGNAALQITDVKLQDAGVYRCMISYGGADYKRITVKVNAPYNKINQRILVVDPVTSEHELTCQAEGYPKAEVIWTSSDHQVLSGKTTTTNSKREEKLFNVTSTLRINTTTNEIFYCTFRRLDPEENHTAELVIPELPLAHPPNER
T2 sequence (Q9NZQ7 19-238): as above
T1 sequence (Q9NZQ7 other isoform, or with tags, fused parts or gaps limits assumed): as the sequence (Q9NZQ7 19-238) above, with A33T, A34S, S62N, R68Q, Q82R, F173L, T185A, T192I, H215L counted along it
Chain of PD-L1 on PD-L1-presenting U2OS bioassay cells (Q9NZQ7 19-290): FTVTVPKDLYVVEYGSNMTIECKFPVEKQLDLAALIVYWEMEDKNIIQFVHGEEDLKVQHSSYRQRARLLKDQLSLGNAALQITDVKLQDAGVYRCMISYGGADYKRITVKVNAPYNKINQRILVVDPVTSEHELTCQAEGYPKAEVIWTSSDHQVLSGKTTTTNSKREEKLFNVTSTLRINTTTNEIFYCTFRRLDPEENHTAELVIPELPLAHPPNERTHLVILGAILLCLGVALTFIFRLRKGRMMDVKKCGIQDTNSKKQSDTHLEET

B1: PHS102 (antibody, human IgG1, kappa, N297A)
heavy: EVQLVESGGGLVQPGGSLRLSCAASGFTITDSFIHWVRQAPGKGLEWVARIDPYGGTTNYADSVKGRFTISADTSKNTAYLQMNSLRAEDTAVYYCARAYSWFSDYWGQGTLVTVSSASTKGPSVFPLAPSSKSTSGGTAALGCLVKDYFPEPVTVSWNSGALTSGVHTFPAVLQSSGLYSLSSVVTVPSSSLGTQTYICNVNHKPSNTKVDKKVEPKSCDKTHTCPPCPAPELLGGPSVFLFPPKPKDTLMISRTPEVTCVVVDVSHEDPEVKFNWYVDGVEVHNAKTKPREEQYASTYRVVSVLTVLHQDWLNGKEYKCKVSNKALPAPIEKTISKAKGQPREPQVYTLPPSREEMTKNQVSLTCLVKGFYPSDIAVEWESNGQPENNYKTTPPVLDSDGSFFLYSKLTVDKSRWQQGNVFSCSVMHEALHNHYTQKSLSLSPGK
light: DIQMTQSPSSLSASVGDRVTITCRAGQDVYKAVAWYQQKPGKAPKLLIYWSTNLYSGVPSRFSGSGSGTDFTLTISSLQPEDFATYYCQQGSTWPLTFGQGTKVEIKRTVAAPSVFIFPPSDEQLKSGTASVVCLLNNFYPREAKVQWKVDNALQSGNSQESVTEQDSKDSTYSLSSTLTLSKADYEKHKVYACEVTHQGLSSPVTKSFNRGEC
Broadly, the EC50 is the concentration giving half of the maximal effect. In general, Kd refers to the equilibrium constant for the complex coming apart. As usually defined, the koff is the first-order rate constant of dissociation. A word on the kon: it is the rate constant with which the complex forms. For orientation: IC50 means the concentration that inhibits the measured activity by half. Take B1: the EC50 in test [1] worked out at 0.216 nM. The EC50 in test [2] is 0.0784 nM. In test [3], the Kd is 14.4 nM, the koff is 0.00679 s⁻¹ and the kon was determined as 473000 M⁻¹ s⁻¹. For the same molecule, the “IC50, blocking PD-1/PD-L1 signaling (PathHunter PD-1 Signaling Bioassay, U2OS PD-L1 cells + Jurkat PD-1 signaling cells)” value in test [4] was found to be 3.18 nM. Further, the IC50 in test [5] is 0.182 nM.

B2: Atezolizumab (antibody)
heavy: not shown
light: DIQMTQSPSSLSASVGDRVTITCRASQDVSTAVAWQQKPGKAPKLLIYSASFLYSGVPSRFSGSGSGTDFTLTISSLQPEDFATYYCQQYLYHPATFGQGTKVEIKRRTVAAPSVFIFPPSDEQLKSGTASVVCLLNNFYPREAKVQWKVDNALQSGNSQESVTEQDSKDSTYSLSSTLTLSKADYEKHKVYACEVTHQGLSSPVTKSFNRGEC
notes: also called YW243.55.S70; MPDL3280A
In the case of B2, the EC50 in test [1] is 0.14 nM. In test [5], the IC50 is 0.239 nM.
